# Test results reported in patent US20150197564A1 (Regeneron, published 2015).
# T1: hANGPTL3(17-460)-His (human, UniProt Q9Y5C1 17-460)
# T1 construct: Bought protein (R&D Systems); also called full-length mature human ANGPTL3 with a C-terminal decahistidine tag; Human ANGPTL3 (17-460)-His
# T1 sequence: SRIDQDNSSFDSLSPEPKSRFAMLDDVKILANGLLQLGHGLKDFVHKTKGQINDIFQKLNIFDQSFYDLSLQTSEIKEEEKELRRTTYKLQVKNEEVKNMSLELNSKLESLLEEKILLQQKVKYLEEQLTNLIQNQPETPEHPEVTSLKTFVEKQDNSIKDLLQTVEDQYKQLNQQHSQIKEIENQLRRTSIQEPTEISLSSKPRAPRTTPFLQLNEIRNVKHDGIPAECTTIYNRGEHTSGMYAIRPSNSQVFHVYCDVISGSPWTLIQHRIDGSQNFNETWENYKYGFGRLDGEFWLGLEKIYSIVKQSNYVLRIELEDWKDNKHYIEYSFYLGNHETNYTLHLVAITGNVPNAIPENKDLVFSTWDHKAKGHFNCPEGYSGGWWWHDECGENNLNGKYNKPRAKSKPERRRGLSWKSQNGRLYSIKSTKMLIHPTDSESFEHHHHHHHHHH
# T2: MfANGPTL3(17-170)-mmH (Macaca fascicularis)
# T2 construct: also called N-terminal coiled-coil domain of ANGPTL3 from Macaca fascicularis with myc-myc-hexahistidine tag; Monkey ANGPTL3 (17-170)-mmH
# T2 chain: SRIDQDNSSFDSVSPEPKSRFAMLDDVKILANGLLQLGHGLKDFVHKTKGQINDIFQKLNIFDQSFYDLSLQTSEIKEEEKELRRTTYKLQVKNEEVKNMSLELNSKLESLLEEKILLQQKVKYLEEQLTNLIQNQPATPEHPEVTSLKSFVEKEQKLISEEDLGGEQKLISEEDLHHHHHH
# T3: hANGPTL3(17-170)-His (human, UniProt Q9Y5C1 17-170)
# T3 construct: also called N-terminal coiled-coil domain of hANGPTL3 with a C-terminal hexahistidine tag; Human ANGPTL3 (17-170)-His
# T3 sequence: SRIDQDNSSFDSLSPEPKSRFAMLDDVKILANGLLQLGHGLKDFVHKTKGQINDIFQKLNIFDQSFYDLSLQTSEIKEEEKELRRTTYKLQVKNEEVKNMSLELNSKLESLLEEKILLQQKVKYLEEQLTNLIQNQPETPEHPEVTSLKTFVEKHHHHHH
# T4: rANGPTL3(17-240)-mmH (Rattus norvegicus)
# T4 construct: also called N-terminal coiled-coil domain of ANGPTL3 from Rattus norvegicus with myc-myc-hexahistidine tag
# T4 chain: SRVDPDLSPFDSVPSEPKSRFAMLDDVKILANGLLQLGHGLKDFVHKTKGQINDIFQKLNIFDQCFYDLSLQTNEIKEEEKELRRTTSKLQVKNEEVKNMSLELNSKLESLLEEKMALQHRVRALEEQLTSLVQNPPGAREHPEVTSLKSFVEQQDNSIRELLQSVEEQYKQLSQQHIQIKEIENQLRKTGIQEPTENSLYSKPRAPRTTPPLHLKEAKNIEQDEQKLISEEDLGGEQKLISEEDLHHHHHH
# T5: mANGPTL3(17-455)-His (Mus musculus, UniProt Q9R182 17-455)
# T5 construct: Bought protein (R&D Systems); also called full-length mature ANGPTL3 from Mus musculus with a C-terminal decahistidine tag
# T5 sequence: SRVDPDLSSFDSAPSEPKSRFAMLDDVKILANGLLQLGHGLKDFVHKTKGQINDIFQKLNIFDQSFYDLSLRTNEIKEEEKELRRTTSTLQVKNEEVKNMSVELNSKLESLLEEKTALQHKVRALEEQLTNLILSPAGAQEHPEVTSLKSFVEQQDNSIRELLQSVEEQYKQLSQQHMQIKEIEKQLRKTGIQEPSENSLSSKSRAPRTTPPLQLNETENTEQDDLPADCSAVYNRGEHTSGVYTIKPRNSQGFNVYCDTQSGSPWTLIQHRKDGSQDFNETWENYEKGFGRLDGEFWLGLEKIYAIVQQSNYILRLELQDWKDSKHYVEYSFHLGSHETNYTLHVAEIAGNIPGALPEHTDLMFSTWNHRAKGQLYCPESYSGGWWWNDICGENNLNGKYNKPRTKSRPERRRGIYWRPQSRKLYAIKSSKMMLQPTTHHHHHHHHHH
# B1: H4H1276S (antibody, IgG4, V domains shown)
# VH: EVQLVESGGGVIQPGGSLRLSCAASGFTFDDYAMNWVRQGPGKGLEWVSAISGDGGSTYYADSVKGRFTISRDNSKNSLYLQMNSLRAEDTAFFYCAKDLRNTIFGVVIPDAFDIWGQGTMVTVSS
# VL: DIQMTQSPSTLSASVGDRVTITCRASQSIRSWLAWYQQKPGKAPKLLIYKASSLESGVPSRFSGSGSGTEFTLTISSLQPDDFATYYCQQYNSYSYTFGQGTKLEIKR
# Experiments:
# [1] = target: T1, hANGPTL3(17-460)-His; test: SPR Biacore, antigen captured, 37C, pH 5.75, PBSP
# Experimental: (§1) All kinetic binding experiments were performed at 25° C. or 37° C. on a BIACORE™ T200 label-free molecular interaction instrument (GE Healthcare) using a CM5 sensor chip. Briefly, an antigen capture surface was generated by covalently coupling either an anti-mouse IgG-specific antibody (anti-mFc; GE Healthcare; catalog #BR-1008-38) or an anti-pentahistidine-specific antibody (Qiagen; catalog #34660) to the surface of a CM5 sensor chip using a standard amine coupling method.
# [2] = target: T2, MfANGPTL3(17-170)-mmH; test: SPR Biacore, antigen captured, 37C, pH 5.75, PBSP
# Experimental: as §1
# [3] = target: T3, hANGPTL3(17-170)-His; test: SPR Biacore, antigen captured, 37C, pH 5.75, PBSP
# Experimental: as §1
# [4] = target: T1, hANGPTL3(17-460)-His; test: SPR Biacore, antigen captured, 25C, pH 7.4, HBS-EP
# Experimental: as §1
# [5] = target: T4, rANGPTL3(17-240)-mmH; test: SPR Biacore, antigen captured, 25C, pH 7.4, HBS-EP
# Experimental: as §1
# [6] = target: T5, mANGPTL3(17-455)-His; test: SPR Biacore, antigen captured, 25C, pH 7.4, HBS-EP
# Experimental: as §1
# [7] = target: T2, MfANGPTL3(17-170)-mmH; test: SPR Biacore, antigen captured, 25C, pH 7.4, HBS-EP
# Experimental: as §1
# [8] = target: T3, hANGPTL3(17-170)-His; test: SPR Biacore, antigen captured, 25C, pH 7.4, HBS-EP
# Experimental: as §1
binder,measurement,setting,value
B1,Kd,[1],227 nM
same,koff,[1],0.0107 s⁻¹
same,kon,[1],47100 M⁻¹ s⁻¹
same,t1/2,[1],1.1 min
same,Kd,[2],18.8 nM
same,koff,[2],0.00521 s⁻¹
same,kon,[2],278000 M⁻¹ s⁻¹
same,t1/2,[2],2.2 min
same,Kd,[3],26.7 nM
same,koff,[3],0.0324 s⁻¹
same,kon,[3],1.22e+06 M⁻¹ s⁻¹
same,t1/2,[3],0.4 min
same,Kd,[4],0.491 nM
same,koff,[4],0.000289 s⁻¹
same,kon,[4],588000 M⁻¹ s⁻¹
same,t1/2,[4],40 min
same,Kd,[5],0.53 nM
same,koff,[5],0.000718 s⁻¹
same,kon,[5],1.35e+06 M⁻¹ s⁻¹
same,t1/2,[5],16.1 min
same,Kd,[6],0.268 nM
same,koff,[6],0.000346 s⁻¹
same,kon,[6],1.29e+06 M⁻¹ s⁻¹
same,t1/2,[6],33.4 min
same,Kd,[7],0.396 nM
same,koff,[7],0.000535 s⁻¹
same,kon,[7],1.35e+06 M⁻¹ s⁻¹
same,t1/2,[7],21.6 min
same,Kd,[8],0.938 nM
same,koff,[8],0.000912 s⁻¹
same,kon,[8],973000 M⁻¹ s⁻¹
same,t1/2,[8],12.7 min
